{"source": "patent US10556014B2", "about": "“Compounds containing a vascular disrupting agent” (Incanthera Ltd, priority 2007, dated 2020)", "key": {"[1]": {"assay": "Levels of prodrug and VDA2 in plasma, tissues and tumour after intraperitoneal dosing of mice bearing subcutaneous HT1080 tumour", "type": "in vivo", "details": "HT1080 tumour bearing mice; for prodrug tissue distribution: all tissues analysed", "source_text": "(§1) [drawing 10] • a) Prodrug-1 has been screened using normal mouse plasma, normal mouse liver homogenate and experimental human tumour model homogenate (HT1080 xenograft; known to express majority of MMPs) ex vivo. Prodrug cleavage and metabolism were detected using LC/MS/MS. • a. Prodrug-1 was stable in plasma and liver, supporting systemic stability of these therapeutics (FIG. 1). • b. […] Plasma, tissues and tumours were collected at regular intervals post-dosing. Levels of prodrug and VDA2 were assessed by LC/MS/MS. • a. […] (FIG. 2) • d. […] VDA2 levels were detected at high levels in tumour tissue following prodrug-1 administration (FIG. 3) • f.\n(§2) [drawing 11] • d) Compound 1 was modified in order to change the MMP-targeting of the compound from being pan-MMP to MT-MMP selective (Prodrug-2) • a. Arginine was incorporated in place of the Glutamic acid at the P4 position • b. […] Prodrug-2 cleavage and metabolism were detected using LC/MS/MS. • a. […] Prodrug-2 is not cleaved by recombinant MMP-9, in contrast to prodrug-1 • d. […] Plasma, tissues and tumours were collected at regular intervals post-dosing. Levels of prodrug-2 and VDA2 were assessed by LC/MS/MS. • a. […] Liver was representative of all normal tissues analysed. (FIG. 5) • d. VDA2 was undetectable in plasma following administration of prodrug-2 (FIG. 6) • e. […] Levels of VDA2 in tumour were 10 times higher than that detected in normal tissues following administration of prodrug-2 (FIG. 6) • g. High levels of prodrug-2 and VDA2 were still detectable in tumour 48 hours post administration."}, "[2]": {"assay": "Ex vivo stability in normal mouse plasma (LC/MS/MS)", "type": "in vitro ADME", "source_text": "as §1\nas §2, with “d.” for “d. VDA2 was undetectable in plasma following administration of prodrug-2 (FIG. 6) • e.”, “High levels of prodrug-2 and VDA2 were still detectable in tumour 48 hours post administration.” left out"}, "[3]": {"system": "HT1080 xenograft tumour homogenate", "assay": "Ex vivo metabolism in experimental human tumour model homogenate (HT1080 xenograft)", "type": "in vitro ADME", "source_text": "as §1\nas §2, with “d.” for “d. VDA2 was undetectable in plasma following administration of prodrug-2 (FIG. 6) • e.”, “High levels of prodrug-2 and VDA2 were still detectable in tumour 48 hours post administration.” left out"}, "[4]": {"assay": "Ex vivo stability in normal mouse liver homogenate (LC/MS/MS)", "type": "in vitro ADME", "source_text": "as §1\nas §2, with “d.” for “d. VDA2 was undetectable in plasma following administration of prodrug-2 (FIG. 6) • e.”, “High levels of prodrug-2 and VDA2 were still detectable in tumour 48 hours post administration.” left out"}}, "note": "Where a SMILES comes first, the peptide text is derived from it. [ ]: non-standard residue; d: D form. The star is where a group is joined. NH(Colchicin-10-yl) = COc1cc2c(c(OC)c1OC)-c1ccc(N*)c(=O)cc1[C@@H](NC(C)=O)CC2; FITC = O=C1OC2(c3ccc(O)cc3Oc3cc(O)ccc32)c2ccc(NC(=S)*)cc21; hPhe = N[C@@H](CCc1ccccc1)C(=O)O; Cit = NC(=O)NCCC[C@H](N)C(=O)O; βAla = NCCC(=O)O"}
{"smiles": "COc1cc2c(c(OC)c1OC)-c1ccc(NC(=O)[C@H](Cc3ccc(O)cc3)NC(=O)[C@H](CC(C)C)NC(=O)[C@H](Cc3ccc(O)cc3)NC(=O)[C@H](CCc3ccccc3)NC(=O)CNC(=O)[C@H](CCCNC(N)=O)NC(=O)[C@@H]3CCCN3C(=O)[C@H](CCC(=O)O)NC(=O)CCNC(=S)Nc3ccc4c(c3)C(=O)OC43c4ccc(O)cc4Oc4cc(O)ccc43)c(=O)cc1[C@@H](NC(C)=O)CC2", "note": "[Prodrug-1] ({FITC-βAla}-EP[Cit]G[hPhe]YLY-{NH(Colchicin-10-yl)})", "values": [{"measurement": "VDA2 levels in normal tissues following prodrug administration", "setting": "[1]", "value": "detectable at low levels"}, {"measurement": "VDA2 levels in tumour following prodrug administration", "setting": "[1]", "value": "high levels"}, {"measurement": "prodrug levels in the tumour compared with other tissues", "setting": "[1]", "value": "Highest"}, {"measurement": "VDA2 level in normal tissues after 24 hours post-dosing with prodrug", "setting": "[1]; 24 hours", "value": "undetectable"}, {"measurement": "VDA2 level in tumour after 24 hours post-dosing with prodrug", "setting": "[1]; 24 hours", "value": "still detectable at high levels"}, {"measurement": "prodrug level after 24 hours post-dosing", "setting": "[1]; 24 hours", "value": "not detectable"}, {"measurement": "prodrug tissue distribution", "setting": "[1]", "value": "accumulated and was detected in all tissues analysed"}, {"measurement": "stability in plasma", "setting": "[2]", "value": "stable"}, {"measurement": "metabolism in tumour homogenate", "setting": "[3]; HT1080 xenograft homogenate (expresses majority of MMPs)", "value": "metabolised"}, {"measurement": "stability in liver homogenate", "setting": "[4]", "value": "stable"}]}
{"smiles": "COc1cc2c(c(OC)c1OC)-c1ccc(NC(=O)[C@H](Cc3ccc(O)cc3)NC(=O)[C@H](CC(C)C)NC(=O)[C@H](Cc3ccc(O)cc3)NC(=O)[C@H](CCc3ccccc3)NC(=O)CNC(=O)[C@H](CCCNC(N)=O)NC(=O)[C@H](CO)NC(=O)[C@H](CCCNC(=N)N)NC(=O)CCNC(=S)Nc3ccc4c(c3)C(=O)OC43c4ccc(O)cc4Oc4cc(O)ccc43)c(=O)cc1[C@@H](NC(C)=O)CC2", "note": "[Prodrug-2] ({FITC-βAla}-RS[Cit]G[hPhe]YLY-{NH(Colchicin-10-yl)})", "values": [{"measurement": "VDA2 level in plasma following prodrug administration", "setting": "[1]", "value": "undetectable"}, {"measurement": "VDA2 levels in tumour following prodrug administration", "setting": "[1]", "value": "High concentrations"}, {"measurement": "levels of VDA2 in tumour relative to normal tissues following prodrug administration", "setting": "[1]", "value": 10, "unit": "times"}, {"measurement": "prodrug levels in the tumour compared with other tissues", "setting": "[1]", "value": "Highest"}, {"measurement": "VDA2 level in tumour 48 hours post prodrug administration", "setting": "[1]; 48 hours", "value": "High levels"}, {"measurement": "prodrug level in tumour 48 hours post administration", "setting": "[1]; 48 hours", "value": "High levels"}, {"measurement": "prodrug tissue distribution", "setting": "[1]", "value": "accumulated and was detected in all tissues analysed"}, {"measurement": "stability in plasma", "setting": "[2]", "value": "remained intact"}, {"measurement": "metabolism in tumour homogenate expressing high MT-MMP levels", "setting": "[3]; HT1080 homogenate, relative to homogenate expressing low MT-MMP levels (MCF7)", "value": "metabolised rapidly"}, {"measurement": "stability in liver homogenate", "setting": "[4]", "value": "remained stable"}]}
